Test results reported in article doi:10.1101/2025.06.14.659724.

Target: PSR2-PDF1-Cα heterotrimer (not stated | A. thaliana | human) (UniProt E0W4V5)
Assay: cryo-EM structure

Substance: PSR2-PDF1-Cα heterotrimer (from UniProt E0W4V5;P67775) (complex)
- stoichiometry N: 2
